# The RNAGym collection of RNA variant scans (doi:10.1073/pnas.2313332121)
# Variants at the floor of the assay were thinned out.
# B1: TPR 5TU (parent)
# chain: GGAUCUUCUCGAUCUAACAAAAAAGACAAAUCUGCCACAAAGCUUGAGAGCAUCUUCGGAUGCAGAGGCGGCAGCCUUCGGUGGCGCGAUAGCGCCAACGUUCUCAACUAUGACACGCAAAACGCGUGCUCCGUUGAAUGGAGUUUAUCAUG
# Variants of: B1
# Experiment: polymerase ribozyme fitness, log enrichment relative to wild type (log ratio); higher = more active; in vitro selection for triplet polymerase activity
# How it was run: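 Fitness compares each genotype's enrichment to that of the wild type on a logarithmic scale, averaging replicates with inverse-variance weights. The logarithm is base 2. Enrichment came from Illumina sequencing of input and output libraries after one triplicate round of in vitro selection, which included frozen incubation at −7 °C, of PCR-built, transcribed mutant libraries of each subunit of a heterodimeric triplet polymerase ribozyme. Only genotypes with ≥10 input reads and ≥1 read per output were kept.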
row,Variant,polymerase ribozyme fitness (log ratio)
1,U13A G74C C93U G124A,≤ -4.2
2,U13C A22G A49U G68C C79G,≤ -4.2
3,U13G G46A G83A U101A U134A U135C,≤ -4.2
4,U13G U56A C57U C87A G88C A89U A121U C125A U148A,≤ -4.2
5,C14G G48A A119G,-3.43
6,U13C A26U U56A G58C C63A G74U G88C A97U,≤ -4.2
7,C14U A23U U31A A47C G92C C96G C131A,≤ -4.2
8,U13G G42A U56G G86U G133C G143U U146C,≤ -4.2
9,A12U A39G C95U,-2.3
10,U13A U53A C63G A97U U102G A142C,≤ -4.2
11,C14G C85U C103U,-3.1
12,A12U U15G U56A G71C G84A G117U A120U A147U,-3.53
13,C14G G46U G48A A73U U77C,≤ -4.2
14,U13G G25A G83A,-4.07
15,U13A A28U C43U G65A A106G,≤ -4.2
16,U13C G88A C99G,-4.01
17,A12U G34C G46A G83A A121U G141U,≤ -4.2
18,C14G C35G U82G G92A C96A G100A C116G A120G G141A U144A,≤ -4.2
19,U13G A24U A37G U134C,-4.14
20,C14A A37U G50U G94U A106U,≤ -4.2
21,C14G A24G U31A A49C A52C C54A U56A A73U A89G C99G A107C C149G,≤ -4.2

row,Variant,polymerase ribozyme fitness (log ratio)
1,U13G C57U C96G,-1.66
2,C14G U31A A40U U90G G92A A107G G112A G133U G141A,≤ -4.2
3,A12U C54A,-1.78
4,C14G A20C A40C A89C,-4.13
5,C14G A20U,-2.37
6,C14G A37U G86U A89U A119U C132G,≤ -4.2
7,C14G U15C C18U A39U A49C G80C A110C,≤ -4.2
8,C14A A21C A22C,-0.829
9,U13A A24U C87A C123A,≤ -4.2
10,U13G A28U G71A G88C,≤ -4.2
11,A12U A20G A52U G141A,-3.17
12,C14G A22G G25A A28C G50C G84U U104G,≤ -4.2
13,C14G A29U A30G C96U,≤ -4.2
14,A12U C14A G42A C96G U111G A122U,≤ -4.2
15,C14G G81A C87U A106C G140U,≤ -4.2
16,A12U C27U C38U G59U C63A C93A,-4.12
17,C14G C35A G42C A66G C96G G117U,≤ -4.2
18,C14U A22U A41U A120C,-3.1
19,A12U U111C,-4
20,U13C U31G C32G C76U C131G,≤ -4.2
21,U13C G58A,0.452

row,Variant,polymerase ribozyme fitness (log ratio)
1,A12U C14U A17U G59A C93U A122U G143C,≤ -4.2
2,C14A G94U A107G,≤ -4.2
3,U13C A39C C72A C76G C99G G140U A147C,≤ -4.2
4,C14G A39G A49U U56A G81U,≤ -4.2
5,U13G C96G A120G,-1.51
6,A12U C51G G88C C108G G117C,≤ -4.2
7,A12U A89U G94U C108G C118U A120C A122C A137C,≤ -4.2
8,U13G C76A,-2.11
9,U13G U33G U56A A60U G143U,≤ -4.2
10,U13C C54G C95G,-3.76
11,C14G A16U A39G G124A,≤ -4.2
12,A12U A17U C18U G34A A64G C87G,≤ -4.2
13,C14A U55A C75U A120U,-2.39
14,A12U A49U C54G C93G,≤ -4.2
15,C14G A60U G86U,≤ -4.2
16,A12U C18G C63G G83U U111G,≤ -4.2
17,A12U A20G A21C U31A C35G G86U A91G A119U G128C,-3.91
18,C14G A47C,-2.35
19,U13C A20C A21C G58A U82A U101A,-1.36
20,U13A U15C A28G U33G C79A C118U U148G,≤ -4.2
21,C14G U55A G84A G141A,-3.7

row,Variant,polymerase ribozyme fitness (log ratio)
1,A12U C87U,-1.1
2,C14G U15G C54U G58U C87G C105U G143A,≤ -4.2
3,C14A U15G A26U G86U G92U A107U U109A C116A,≤ -4.2
4,A12U U55A G141A,-1.32
5,C14G A17G G46C G81A C96G A120G,≤ -4.2
6,A12U U53A G141U,-1.08
7,A12G U56G C96U A120U,-0.669
8,U13G A137U,≤ -4.2
9,U13G A91U,≤ -4.2
10,C14A A20U A60G A66U C93G,≤ -4.2
11,A12U G42C C72G C76A A91U A120U U144C,≤ -4.2
12,C14A A17U A21G C54U A60G,-3.75
13,U13A A17G A49C A107G,≤ -4.2
14,C14A A19U A21C A60G,-1.8
15,A12U U15A A21U U55A C76U C79A A121U,≤ -4.2
16,U13A A22U A41C U53G,-2.31
17,A12U G84A,-1.05
18,A12U U31G A60G G83C,-1.56
19,C14G C27A A37U C54U G67A G94U C105G,≤ -4.2
20,U13G U15A C51U C96A A121G,-2.76
21,C14G A22C A73U,-3.92
